From patent US20150246945A1 (JAPANESE FOUNDATION FOR CANCER RESEARCH, published 2015) come the findings set out here.

Bridge positions count the residues as written; N and C are the ends. Ends that are not written are not given here. * marks the point of attachment. Biotin = O=C1N[C@H]2[C@H](CS[C@H]2CCCCC(=O)*)N1

To fix the notation:
B1: PE184 peptide (peptide)
peptide: Ac-KHLQCVRNICWSGGSGGSK(Biotin)-NH2
modifications: not fully specified (bridges); printed as Ac-KHLQCVRNICWSGGSGGSK(biotin)-NH2; cysteine pairing not given here
notes: Ep114 with the linker GGSGGSK, biotin-modified
B2: PE185 peptide (peptide)
peptide: Ac-KHLQCVRNICWSNNNNSNNNNK(Biotin)-NH2
modifications: not fully specified (bridges); printed as Ac-KHLQCVRNICWSNNNNSNNNNK(biotin)-NH2; cysteine pairing not given here
B3: Ep114 peptide (peptide)
peptide: KHLQCVRNICWS
modifications: disulfide 5-10; also: FITC-modified, position not given here
notes: Synthetic peptide, FITC-modified in fluorescence depolarization and cell staining
B4: Ep133 peptide (peptide)
peptide: EHLHCLGSLCWP
modifications: disulfide 5-10; also: FITC-modified, position not given here
notes: as for B3
B5: Ep114(K1I) variant phage (peptide)
chain: IHLQCVRNICWS
modifications: not fully specified (bridges); cysteine pairing not given here; also: displayed on phage
notes: also called variant in which lysine at the 1st residue was substituted by isoleucine (I); not shown: not described
B6: Ep114(L3A) variant phage (peptide)
chain: KHAQCVRNICWS
modifications: not fully specified (bridges); cysteine pairing not given here; also: displayed on phage
notes: not shown: not described
B7: Ep114(K1A) variant phage (peptide)
chain: AHLQCVRNICWS
modifications: not fully specified (bridges); cysteine pairing not given here; also: displayed on phage
notes: also called variant in which lysine at the 1st residue was substituted by alanine (A); not shown: not described
B8: Ep114(K1N) variant phage (peptide)
chain: NHLQCVRNICWS
modifications: not fully specified (bridges); cysteine pairing not given here; also: displayed on phage
notes: also called variant in which lysine at the 1st residue was substituted by asparagine (N); not shown: not described
B9: Ep114(K1S) variant phage (peptide)
chain: SHLQCVRNICWS
modifications: not fully specified (bridges); cysteine pairing not given here; also: displayed on phage
notes: also called variant in which lysine at the 1st residue was substituted by serine (S); not shown: not described
B10: Ep114-displaying phage (peptide)
chain: KHLQCVRNICWS
modifications: cysteine pairing not given here; also: displayed on phage
notes: not shown: fusion and linker not described
B11: Ep114(K1M) variant phage (peptide)
chain: MHLQCVRNICWS
modifications: not fully specified (bridges); cysteine pairing not given here; also: displayed on phage
notes: also called variant in which lysine was substituted by methionine (M); not shown: not described
B12: Ep114(K1F) variant phage (peptide)
chain: FHLQCVRNICWS
modifications: not fully specified (bridges); cysteine pairing not given here; also: displayed on phage
notes: also called variant in which lysine was substituted by phenylalanine (F); not shown: not described
B13: Ep114(K1Y) variant phage (peptide)
chain: YHLQCVRNICWS
modifications: not fully specified (bridges); cysteine pairing not given here; also: displayed on phage
notes: also called variant in which lysine was substituted by tyrosine (Y); not shown: not described
B14: Ep114(K1W) variant phage (peptide)
chain: WHLQCVRNICWS
modifications: not fully specified (bridges); cysteine pairing not given here; also: displayed on phage
notes: also called variant in which lysine was substituted by tryptophan (W); not shown: not described
B15: Ep301 peptide (peptide)
peptide: KSLQCINNLCWP
modifications: disulfide 5-10; also: FITC-modified, position not given here
B16: Ep301 control (peptide)
peptide: KSLQSINNLSWP
modifications: also: FITC-modified, position not given here
notes: Ep301 with cysteine at positions 5 and 10 substituted by serine
B17: EpCAM partial sequence (sequence of EpCAM from residue 106 to 119) (peptide)
peptide: KAKQCNGTSMCWPK
modifications: cysteine pairing not given here; also: FITC-modified, position not given here

The first experiment deals with T1, EpCAM, whole protein on cells (HT-29, MCF-7, 293T transfected with full-length EpCAM plasmid pkk196) or on … (UniProt P16422 24-314, limits assumed).
T1 construct: whole, on cells; Used for both cell-surface EpCAM and EpCAM carried on HT-29 exosomes; the assay field says which; also called EpCAM on HT-29; EpCAM-expressing cells
T1 sequence (looked up): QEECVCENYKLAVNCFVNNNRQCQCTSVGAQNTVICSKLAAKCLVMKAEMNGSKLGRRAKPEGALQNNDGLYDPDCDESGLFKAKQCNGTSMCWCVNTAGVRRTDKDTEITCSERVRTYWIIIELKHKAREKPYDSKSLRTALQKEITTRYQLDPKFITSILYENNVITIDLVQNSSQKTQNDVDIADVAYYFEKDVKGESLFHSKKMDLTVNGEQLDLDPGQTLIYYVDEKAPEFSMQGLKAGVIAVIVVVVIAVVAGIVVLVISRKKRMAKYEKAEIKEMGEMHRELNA
As to the kind of experiment: pull-down of HT-29 exosomes on peptide-loaded streptavidin beads, Western blot with anti-EpCAM. As for the experimental part: 250 μg of streptavidin-magnetic beads (Dynabeads® M-280 streptavidin, VERITAS Corp.) in TBS containing 2% BSA was added to 20 μg of the biotinylated Ep114 peptide and shaken at room temperature for 30 minutes, followed by washing with TBS. Beads reacted without the peptide were used as a control. The anti-Ep114 antibody was added to the beads in TBST and reacted at room temperature for 1 hour. After washing with TBS, the beads were collected. The collected beads were heated at 95° C. for 5 minutes in a SDS sample buffer. After Western-blotting, the anti-Ep114 antibody was detected using HRP-labeled anti-rabbit antibodies.
The binding to exosomes was confirmed using the Western blot system in the similar method as in the preceding paragraph 1. Specifically, 20 μg of the biotinylated Ep114 peptide, the PE183 peptide, the PE184 peptide, or the PE185 peptide was bound to 250 μg of streptavidin-magnetic beads and then reacted with exosomes isolated from HT-29 cells as EpCAM-positive cells, followed by Western blot to detect the exosomes using anti-EpCAM polyclonal antibodies (see the left panel of FIG. 5C).
Take B1: the binding result is reported as “binds”.

For the molecule B2, the binding result is recorded as “binds”.

The target in another experiment is T2, purified EpCAM (extracellular domain with myc and His tags at the C terminus, expressed in HEK-293T cells) (UniProt P16422 24-265, limits assumed).
T2 construct: extracellular domain; also called epithelial cell adhesion molecule; CD326
T2 sequence (looked up): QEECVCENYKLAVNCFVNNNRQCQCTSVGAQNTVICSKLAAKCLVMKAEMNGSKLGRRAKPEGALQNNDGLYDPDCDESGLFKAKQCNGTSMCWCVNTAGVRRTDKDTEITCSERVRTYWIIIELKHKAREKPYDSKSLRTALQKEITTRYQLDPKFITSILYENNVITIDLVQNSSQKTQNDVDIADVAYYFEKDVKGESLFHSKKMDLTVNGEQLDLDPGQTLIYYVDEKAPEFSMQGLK
As to the kind of experiment: fluorescence depolarization. On the procedure:
(§1) Each FITC-modified EpCAM peptide or control peptide was suspended at a concentration of approximately 100 μM in PBS. After centrifugation, the supernatant was collected and diluted 10-fold, and the absorbance was measured at 495 nm From the measurement value, the molar concentration of the peptide was determined using the formula of Beer-Lambert of the following expression 1: […]
(§2) EpCAM is diluted with PBS into several concentrations from 0 until reaching equilibrium (40 nM for the Ep133 peptide), and the FITC-modified peptide whose precise concentration has been measured by the aforementioned method is added to the dilutions thus prepared. The sample was left at a temperature for measurement for 30 minutes or longer and subjected to polarization measurement using a spectrofluorometer FP-6500 (JASCO Corp.) equipped with an automatic polarization measurement unit (JASCO Corp., APH-103). Kd was estimated by curve fitting according to the Hill equation.
In the case of B3, the “fold strength of binding compared with Ep301” value is at least 10 times.

Consider B4, for which the “fold strength of binding compared with Ep301” value was at least 10 times.

Another experiment has as its target T2, purified EpCAM (extracellular domain …). As to the kind of experiment: phage bound to EpCAM, captured on beads, phages counted. As for the experimental part: The analysis was conducted using the variants in which lysine at the 1st residue was substituted by alanine (A), asparagine (N), serine (S), or isoleucine (I), and M13KE, Ep114, and the variant in which leucine at the 3rd residue was substituted by alanine as controls. Each phage of 1×10¹⁰ PFU was bound to 1 μg of EpCAM, and then mixed with 0.4 mg of beads pretreated overnight with 0.5% BSA and B&W buffer (5 mM Tris-HCl (pH 7.5), 0.5 mM EDTA, and 1 M NaCl). The number of phages bound to the beads was counted.
On to B5, for which the binding result is “binds”.

B6: the binding result is reported as “binds”.

With B7, the binding result is reported as “binds”.

In the case of B8, the binding result is “binds”.

Turning to B9, the binding result was “binds”.

On to B10, for which the binding result is recorded as “binds”.

The next experiment shares this target. As to the kind of experiment: phage ELISA on immobilized EpCAM. As for the experimental part: The phages displaying the peptides in which each amino acid of Ep114 was substituted by alanine are added to the EpCAM- or anti-Ep114 antibody-immobilized plate, and the plate is left still at room temperature for 1 hour. After washing with TBST, HRP-labeled anti-M13 antibodies were reacted therewith, followed by detection using ABTS (2,2′-azinobis(3-ethylbenzothiazoline-6-sulfonic acid). The binding activity against EpCAM is shown in FIG. 3A, and the binding activity against the anti-Ep114 antibody is shown in FIG. 3B. M13KE is a phage displaying no peptide and is a negative control.
As with the alanine substitution variants, variant phages were prepared by the introducing specific mutations to lysine at the 1st residue based on inverse PCR method and analyzed for binding activity against EpCAM. The analysis method involved evaluation by ELISA in the same way as in the functional analysis of the Ep114 peptide by the alanine scanning. In the figure, EpCAM+ and EpCAM− represent the presence and absence of EpCAM immobilization onto a plate, respectively. Corrected value represents a value subtracting the measurement of EpCAM− from the measurement of EpCAM+.
For the molecule B11, the binding result was “binds”.

Turning to B12, the binding result is “binds”.

Consider B13, for which the binding result is “binds”.

For B14, the binding result is “binds”.

Another experiment has the same target. Put plainly: fluorescence depolarization, FITC-modified peptide, Hill fit. On the procedure: as §1, §2
For the molecule B3, the Kd was 1.6 nM.

As to B15, binding was characterised by a dissociation constant (Kd) of 20 nM.

B4 displayed a Kd of 1.5 nM.

The next experiment shares this target. As to the kind of experiment: fluorescence depolarization, FITC-modified peptide. On the procedure: as §1, §2
The dissociation constants of the EpCAM-binding peptide Ep301 (FIG. 2(D)) disclosed in Patent Literature 2 and Ep301 control (FIG. 2(E)), which was a control peptide derived from Ep301 by the substitution of cysteine at positions 5 and 10 by serine, and a sequence of EpCAM from residue 106 to 119 (FIG. 2(F)) having partial homology to EpCAM-binding peptides were measured similarly.
Turning to B16, the binding result was “no binding”.

As to B17, the binding result was “no binding”.
